experiment: soluble on expression in E. coli; label from the status in PepcDB or PDB records

Soluble on expression in E. coli, soluble:
AIASQFDPDKFKQEQKARWNQGARSTWTLWKQTQVEDTPAKFFLGLVPIRPGVKVLDLACGSGETSLQVAQLVSSHLPSDSKDAKIVCVDISEEMLRVLSQRAQELGLSSVVETCCEDAENINFGTHYFDMVMSQFGVMFLPHLPEDLANIRKMMKPGSLFCCVVWGEEKDCHIFYAARSVVSPPPPPPGTPVSYGTKEKVMEALRKAEFSDVKAVEFQVVHETKDAEEYITLMSGVNQWLEKSLGEKGSGPWQKLVEYCNNSYRTSRGTLQFPNVCVGITAIA
MSLSKNDHRITHNKSDKDNLDDDFSLFRDEVKGVKKLRQDTILHAPNRNPKQKEIRRTEREASDNDFYFSDEFMPHLTDEGPTRYARSDVSKYEVKRLRRGVYVPDVFLDMHGMTQQEAKRELGAMIAYCLKENVHCACVQHGIGKHILKQNVPLWLAQHPDVLAFHQAPLEFGGDGALLVLLSIPEKEGHHHHHH
MSLKDKFGREIRSLRISITNKCNLQCFYCHREGHDSNNDRYMTPEEIGIIAKTSTKFGVKKIKISGGEPLLRKDVCEIIENIKDERIKDISLTTNGILLENLAEKLKDAGLNRVNVSLDTLNPELYKKITKFGDVERVINGIKKAIDVSLTPLKVNFLAMSINIKDLPDIMEFCRDIGAILQIIEFIPLKEELKGYYYNISPIENEIKEKADKVITRNFMQNRKKYIVDGLEIEFVRPMDNSEFCMHCTRIRLTYDGYLKPCLLRDDNLVDVLTPLRKGENLEPYFIECINRREPYFKIKEGHHHHHH
SETRSPGLNNMKPQSLQLVLEEQVLALQQQMAENQAASWRKLKNSQEAQQRQATLVRKLQAKVLQYRSWCQELEKRLEATGGPIPQRWENVEEPNLDELLVRLEEEQQRCESLAEVNTQLRLHMEKADVVNKALREDVEKLTVDWK
MAHHHHHHMAASANGSTKGSETDLPIGKDGTTLHLKCKSDELADRIIFVGDPGRVDVISGYFDKDSIRASRDHREIRFATGTYKGTPVTVISTGMGVDNIEIVLNEIHALKEYDMERGQWRHRKGDADAPSAGPFFDPSTMKIIRLGTCGSPAESVPPLALAVTRHAIGMDNTSLYYSAGTRETSKDQQEIRRIVREQTGLRAIDIYTSMAHPNITKSICAACDAHNAATGSEADKQQYVIGTTATASGFYGCQGRRVGRFMKHLTVPNMVEELGSLKFNLSNGVEVVTNIEMETSAICYLSDMLGYQAGAACVVVSKRVGEKKMFLGDQLDAAMKRCIKIILEALVSA
SKGKLGEKISQFKIVEELKAKGLYAYFRPIQSKQDTEVKIDGRRVLMFGSNSYLGLTTDTRIIKAAQDALEKYGTGCAGSRFLNGTLDIHVELEEKLSAYVGKEAAILFSTGFQSNLGPLSCLMGRNDYILLDERDHASIIDGSRLSFSKVIKYGHNNMEDLRAKLSRLPEDSAKLICTDGIFSMEGDIVNLPELTSIANEFDAAVMVDDAHSLGVIGHKGAGTASHFGLNDDVDLIMGTFSKSLASLGGFVAGDADVIDFLKHNARSVMFSASMTPASVASTLKALEIIQNEPEHIEKLWKNTDYAKAQLLDHGFDLGATESPILPIFIRSNEKTFWVTKMLQDDGVFVNPVVSPAVPAEESLIRFSLMATHTYDQIDEAIEKMVKVFKQAEVETLI
MIPGEYRLREEPIVCNRQKSATKLTVVNRGDRPVQVGSHFHFFEVNSFLEFDRQAAYGKHLNIPAGTAVRFEPGDAKQVELVPFSGERRVYGLNNMVNGPLDGNGKGGVRE
QEGDAAKGEKEFNKCKACHMVQAPDGTDIVKGGKTGPNLYGVVGRKIASVEGFKYGDGILEVAEKNPDMVWSEADLIEYVTDPKPWLVEKTGDSAAKTKKTFKLGKNQADVVAFLAQHSPDAGAEAAPAEGAAN

Soluble on expression in E. coli, not soluble:
MGSDKIHHHHHHMAHHAAPPINTTKFPIDRWWVAALSSELTDKPVARTLLGRPVVLFRLPSGEVGALEDRCCHKSLPLSCGSLEVRGLRCGYHGLLFDRDGACVEIPGQDRIPAKACVASYPVREQDAIVWIWIGAEAHAEPTCAPPRYPFHSDPQYRFGGGHYHYDAPYQLIHDNLMDLSHLGYVHLKTIGGNASLHMGAETRVSTDGDTVTLVRRMPDSEPPPTYTAAWPFAGRVDRWQEIEFHVSHIRIWTGAMDAGTGDLHDPARGGFHMRGFHGITPETETTTHYFWTVATNPQHDIERVARTVIEQSAATFDEDKTVIEAQYRNQLRFPDRRQIDIHVDAGPNRARRVIERLLLQPEPA
MGHAHSSSSNGSSQITANPHDEKTKEKVEKLFRQNNRTNRSRSLDNRTQEKLPNRPVGSSHSARFPKTRHIPVPLQGPRKSEEGPNGSISGLSRDDKRIIETCWFKCSQKQLRKCSCDMFWDILHTDEDILRLFRLDHVAPNRLKDNDYFKSHASNLALVLNLVVTNLQDNFDQAQDALQALGYQHLHLIDRTHFQTMYWDIFTDCFERNPPPSFKKGAEREVALKFHRF
TNTEQFCTGCHEMRDNVYAELKGTIHYTNRSGVRAICSDCHVPHNWTDKIARKTQASKEVWGKIFGTINTREKFVEKRLELAQHEWARLKANDSLECRNCHNYESMDFTRQSMRAQNMHSTYLADKSKTCIDCHKGIAHTLPRMPPDQTSLAPPAAGPARADTGHAER
MAFKGYPVIDKDGNIYAGNQDGQLYAYTSTGSLKWTFPLNGFSSSSPAIDHNGNIYIGSGSGELFSISKNGDMNWSFYTDGPVRTAPLIDAKGTVYFGSDDMKVYAADANGNELWSYQTDSNVVSSPQLAEDGTLEHHHHHH
MGSDKIHHHHHHMAAWRTVVIATSCHLRVRDRQLVIESREGERTQLPLADIGVVIVENPQVTLSAALLSALAQEGTALMSCDSSHLPDGVFAPFGTHSRHTRAARVQAVWSEPFKKRCWQKIVRAKVSSQAEVLRRVGAEDAARRLENLVGKVTSGDTTGVEAQAAQVYWRSLFVNFKRWDGGLDARNGGLNYGYAVLRGALGRAIAGAGLIPAFGLHHAGELNSFNLADDLIEPFRPFVDLLVWGLFLERTGDDPLTREERMRIAQILGESCIMTERYETLLSATQIIARSLVSAGEQKESRRLILPWMGEDDVQGEVYEADGDV
MVQEIIVDSGDIEFLTTPKEYKQQLLSLIECARQRIFITALYLQDDEAGREILHALYQAKANFPTIEINIFVDFNRGQRGLIGEKASLGNRALYLKLAHEYPHTVNIYGVAVKRKEVFGVLHLKGMVFDEKLFYTGASINDIYLHQGERLEHHHHHH
MGSDKIHHHHHHMNQKTRLTLILDELKTHPSLSLKDIMQLTGTSRDTARRDIVKLAAHNLAERNYGGISRPNTFNKLDQYLDRDDDLLQTKRALAHTASSYLLNDALLFLDISTTVACLPQYLQSKHPGMIVTNSLDIADQALRHSNFQTRILGGTLDAQQRCVQGADSILALHKFRFTTTVLSCAGLTADGVYYAYESDIALKETLRAQSDRLVLLFDHTKVNVSHNFNLLALSDFDYFVTDQPLPDNLATKIAPDKLIYL
MAHHHHHHMHSSPFPSLFLVSRNGAHASRFSVVQLEYITSTCFSLLQVVTYRVATCSHGTMTALADEVREKYSLSLSSDYVERCVQAKASLTSLELYQKSLWENLRDICGTSLLPYGIGAQVSATLPNAVVMQINASRDATQPLRPCADASDEEAFLNAAFQRNSSKRLLRLQLTDGNVEISALELSTLCVFQGIPTPGEKLLIHKGAEVRNGCIILSEGSVSVLGGEVRQLKQDFLANRRRLEVGYQTSNGLDGAPRFAPLQVGHHYRSSVANSGAPVDIGHQGGASPYHANERGGRRSNYSRNGGGGGRAQQAGDNYEGRVSAGDHGRGGRGGRGGRGWDSSYGGDGWRGHGRRGGGYVRRGDGGRVDSRGCVGGASYHVDTANFQPPAEKFPEINEANFPRLV
MKVVVIGGGWSGVAAAIEAKKMGADVVLFEKTDLLLGLGNVGGIMRNNGRYTASEELIAMGGGDLINITDKVSRHKDIPFPGHEHAWLYDVNLVEGEVKRYVESLGIETKMVSRIIDIKQEDNKILGVYTSDGQYYNGDVFIETTGSTGPMGNCLRYGNGCSMCILRCPSFGPRISISSRCGVEDIQGERVGDELGAFSGSCKLAKETLSEEIRKELEEKGCVVLKIPKEDVNYDKLNTKVCQQYALKEFAENVVLLDTGHAKLMTTYYPLEKLRKIKGLENAKYVDPYAGGKGNSIRYLSVAPRDDNMKVKGVTNLFCAGEKSGLFVGHTEAIVTGTLAGHNAVRHALGIPYLILPRATVLGDIIAFANEESQSREGKKNRYTFAGSVYFNRMKELGLYTIDKDEIQKRVAQLNLDGVFSKKLMLEHHHHHH
